Assay results from IntAct's records for PubMed 25910212.

B1: Tyrosine aminotransferase (Homo sapiens), P17735 (parent)
chain: MDPYMIQMSSKGNLPSILDVHVNVGGRSSVPGKMKGRKARWSVRPSDMAKKTFNPIRAIVDNMKVKPNPNKTMISLSIGDPTVFGNLPTDPEVTQAMKDALDSGKYNGYAPSIGFLSSREEIASYYHCPEAPLEAKDVILTSGCSQAIDLCLAVLANPGQNILVPRPGFSLYKTLAESMGIEVKLYNLLPEKSWEIDLKQLEYLIDEKTACLIVNNPSNPCGSVFSKRHLQKILAVAARQCVPILADEIYGDMVFSDCKYEPLATLSTDVPILSCGGLAKRWLVPGWRLGWILIHDRRDIFGNEIRDGLVKLSQRILGPCTIVQGALKSILCRTPGEFYHNTLSFLKSNADLCYGALAAIPGLRPVRPSGAMYLMVGIEMEHFPEFENDVEFTERLVAEQSVHCLPATCFEYPNFIRVVITVPEVMMLEACSRIQEFCEQHYHCAEGSQEECDK
B2: U4/U6 small nuclear ribonucleoprotein Prp31 (Homo sapiens), Q8WWY3 (parent)
chain: MSLADELLADLEEAAEEEEGGSYGEEEEEPAIEDVQEETQLDLSGDSVKTIAKLWDSKMFAEIMMKIEEYISKQAKASEVMGPVEAAPEYRVIVDANNLTVEIENELNIIHKFIRDKYSKRFPELESLVPNALDYIRTVKELGNSLDKCKNNENLQQILTNATIMVVSVTASTTQGQQLSEEELERLEEACDMALELNASKHRIYEYVESRMSFIAPNLSIIIGASTAAKIMGVAGGLTNLSKMPACNIMLLGAQRKTLSGFSSTSVLPHTGYIYHSDIVQSLPPDLRRKAARLVAAKCTLAARVDSFHESTEGKVGYELKDEIERKFDKWQEPPPVKQVKPLPAPLDGQRKKRGGRRYRKMKERLGLTEIRKQANRMSFGEIEEDAYQEDLGFSLGHLGKSGSGRVRQTQVNEATKARISKTLQRTLQKQSVVYGGKSTIRDRSSGTASSVAFTPLQGLEIVNPQAAEKKVAEANQKYFSSMAEFLKVKGEKSGLMST
partner: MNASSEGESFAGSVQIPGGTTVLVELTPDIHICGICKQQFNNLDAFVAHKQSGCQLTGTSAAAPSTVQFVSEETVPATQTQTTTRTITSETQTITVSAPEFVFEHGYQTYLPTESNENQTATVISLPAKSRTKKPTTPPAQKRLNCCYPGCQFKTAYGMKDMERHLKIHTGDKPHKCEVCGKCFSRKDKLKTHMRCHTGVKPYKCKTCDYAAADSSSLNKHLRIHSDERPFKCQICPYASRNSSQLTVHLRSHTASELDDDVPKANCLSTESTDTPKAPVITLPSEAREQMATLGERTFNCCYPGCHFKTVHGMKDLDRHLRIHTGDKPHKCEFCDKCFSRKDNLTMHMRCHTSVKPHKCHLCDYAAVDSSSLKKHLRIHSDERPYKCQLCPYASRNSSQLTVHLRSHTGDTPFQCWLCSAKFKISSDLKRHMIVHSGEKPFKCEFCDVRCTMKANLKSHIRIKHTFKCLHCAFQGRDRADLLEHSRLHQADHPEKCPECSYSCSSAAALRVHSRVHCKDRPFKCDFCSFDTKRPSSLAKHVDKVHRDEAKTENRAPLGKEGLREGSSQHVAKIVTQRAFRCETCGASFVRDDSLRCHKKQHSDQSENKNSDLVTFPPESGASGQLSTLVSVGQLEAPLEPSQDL
B3: EF-hand domain-containing protein 1 (Homo sapiens), Q5JVL4 (parent)
chain: MVSNPVHGLPFLPGTSFKDSTKTAFHRSQTLSYRNGYAIVRRPTVGIGGDRLQFNQLSQAELDELASKAPVLTYGQPKQAPPADFIPAHVAFDKKVLKFDAYFQEDVPMSTEEQYRIRQVNIYYYLEDDSMSVIEPVVENSGILQGKLIKRQRLAKNDRGDHYHWKDLNRGINITIYGKTFRVVDCDQFTQVFLESQGIELNPPEKMALDPYTELRKQPLRKYVTPSDFDQLKQFLTFDKQVLRFYAIWDDTDSMYGECRTYIIHYYLMDDTVEIREVHERNDGRDPFPLLMNRQRVPKVLVENAKNFPQCVLEISDQEVLEWYTAKDFIVGKSLTILGRTFFIYDCDPFTRRYYKEKFGITDLPRIDVSKREPPPVKQELPPYNGFGLVEDSAQNCFALIPKAPKKDVIKMLVNDNKVLRYLAVLESPIPEDKDRRFVFSYFLATDMISIFEPPVRNSGIIGGKYLGRTKVVKPYSTVDNPVYYGPSDFFIGAVIEVFGHRFIILDTDEYVLKYMESNAAQYSPEALASIQNHVRKREAPAPEAESKQTEKDPGVQELEALIDTIQKQLKDHSCKDNIREAFQIYDKEASGYVDRDMFFKICESLNVPVDDSLVKELIRMCSHGEGKINYYNFVRAFSN
partner: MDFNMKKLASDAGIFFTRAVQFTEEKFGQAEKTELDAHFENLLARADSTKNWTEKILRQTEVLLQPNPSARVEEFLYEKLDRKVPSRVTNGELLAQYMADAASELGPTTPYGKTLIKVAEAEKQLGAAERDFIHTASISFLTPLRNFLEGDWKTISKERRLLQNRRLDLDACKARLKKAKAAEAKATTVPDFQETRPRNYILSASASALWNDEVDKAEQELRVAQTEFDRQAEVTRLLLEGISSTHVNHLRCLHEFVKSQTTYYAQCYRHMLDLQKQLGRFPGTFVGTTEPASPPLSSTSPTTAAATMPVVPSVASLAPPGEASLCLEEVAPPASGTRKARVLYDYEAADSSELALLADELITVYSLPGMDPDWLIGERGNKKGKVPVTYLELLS
B4: Krev interaction trapped protein 1 (Homo sapiens), O00522 (parent)
chain: MGNPENIEDAYVAVIRPKNTASLNSREYRAKSYEILLHEVPIEGQKKKRKKVLLETKLQGNSEITQGILDYVVETTKPISPANQGIRGKRVVLMKKFPLDGEKMGREASLFIVPSVVKDNTKYTYTPGCPIFYCLQDIMRVCSESSTHFATLTARMLIALDKWLDERHAQSHFIPALFRPSPLERIKTNVINPAYATESGQTENSLHMGYSALEIKSKMLALEKADTCIYNPLFGSDLQYTNRVDKVVINPYFGLGAPDYSKIQIPKQEKWQRSMSSVTEDKERQWVDDFPLHRSACEGDSELLSRLLSERFSVNQLDSDHWAPIHYACWYGKVEATRILLEKGKCNPNLLNGQLSSPLHFAAGGGHAEIVQILLNHPETDRHITDQQGRSPLNICEENKQNNWEEAAKLLKEAINKPYEKVRIYRMDGSYRSVELKHGNNTTVQQIMEGMRLSQETQQYFTIWICSENLSLQLKPYHKPLQHVRDWPEILAELTNLDPQRETPQLFLRRDVRLPLEVEKQIEDPLAILILFDEARYNLLKGFYTAPDAKLITLASLLLQIVYGNYESKKHKQGFLNEENLKSIVPVTKLKSKAPHWTNRILHEYKNLSTSEGVSKEMHHLQRMFLQNCWEIPTYGAAFFTGQIFTKASPSNHKVIPVYVGVNIKGLHLLNMETKALLISLKYGCFMWQLGDTDTCFQIHSMENKMSFIVHTKQAGLVVKLLMKLNGQLMPTERNS
partner: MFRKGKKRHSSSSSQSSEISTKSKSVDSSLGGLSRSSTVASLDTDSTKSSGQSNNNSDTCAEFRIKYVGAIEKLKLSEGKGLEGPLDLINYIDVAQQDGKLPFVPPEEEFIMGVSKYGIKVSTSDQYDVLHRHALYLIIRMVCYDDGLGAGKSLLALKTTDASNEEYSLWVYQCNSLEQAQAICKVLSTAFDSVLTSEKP

Variants of: B1
Conditions: with UBE3A

| effect of a mutation on the interaction | Variant |
| --- | --- |
| disrupting interaction strength | MDPYMIQMSSKGNLPSILDVHVNVGGRSSVPGKMKGRKARWSVRPSDMAKKTFNPIRAIVDNMKVKPNPNKTMISLSIGDPTVFGNLPTDPEVTQAMKDALDSGKYNGYAPSIGFLSSREEIASYYHCPEAPLEAKDVILTSGCSQAIDLCLAVLANPGQNILVPRPGFSLYKTLAESMGIEVKLYNLLPEKSWEIDLKQLEYLIDEKTACLIVNNPSNSCGSVFSKRHLQKILAVAARQCVPILADEIYGDMVFSDCKYEPLATLSTDVPILSCGGLAKRWLVPGWRLGWILIHDRRDIFGNEIRDGLVKLSQRILGPCTIVQGALKSILCRTPGEFYHNTLSFLKSNADLCYGALAAIPGLRPVRPSGAMYLMVGIEMEHFPEFENDVEFTERLVAEQSVHCLPATCFEYPNFIRVVITVPEVMMLEACSRIQEFCEQHYHCAEGSQEECDK [P220S] |
| disrupting interaction strength | MDPYMIQMSSKGNLPSILDVHVNVGGRSSVPGKMKGRKARWSVRPSDMAKKTFNPIRAIVDNMKVKPNPNKTMISLSIGDPTVFGNLPTDPEVTQAMKDALDSGKYNGYAPSIGFLSSREEIASYYHCPEAPLEAKDVILTSGCSQAIDLCLAVLANPGQNILVPRPGFSLYKTLAESMGIEVKLYNLLPEKSWEIDLKQLEYLIDEKTACLIVNNPSNPCGSVFSKRHLQKILAVAARQCVPILADEIYGDMVFSDCKYEPLATLSTDVPILSCGGLAKRWLVPGWRLGWILIHDRRDIFGNEIRDGLVKLSQRILGPCTIVQGALKSILCRTPGEFYHNTLSFLKSNADLCYGALAAIPGLRPVRPSGAMYLMVGIEMEHFPEFENDVEFTERLVAEQSVHCLPATCFEYPNFIRVVITVPEVMMLEACSWIQEFCEQHYHCAEGSQEECDK [R433W] |
| disrupting interaction strength | MDPYMIQMSSKGNLPSILDVHVNVGGRSSVPGKMKGRKARWSVRPSDMAKKTFNPIRAIVDNMKVKPNPNKTMISLSIGDPTVFGNLPTDPEVTQAMKDALDSGKYNGYAPSIGFLSSREEIASYYHCPEAPLEAKDVILTSGCSQAIDLCLAVLANPGQNILVPRPGFSLYKTLAESMGIEVKLYNLLPEKSWEIDLKQLEYLIDEKTACLIVNNPSNPCGSVFSKRHLQKILAVAARQCVPILADEIYGDMVFSDCKYEPLATLSTDVPIPSCGGLAKRWLVPGWRLGWILIHDRRDIFGNEIRDGLVKLSQRILGPCTIVQGALKSILCRTPGEFYHNTLSFLKSNADLCYGALAAIPGLRPVRPSGAMYLMVGIEMEHFPEFENDVEFTERLVAEQSVHCLPATCFEYPNFIRVVITVPEVMMLEACSRIQEFCEQHYHCAEGSQEECDK [L273P] |

Variants of: B1
Conditions: with glna_human GLUL

| effect of a mutation on the interaction | Variant |
| --- | --- |
| with no effect | MDPYMIQMSSKGNLPSILDVHVNVGGRSSVPGKMKGRKARWSVRPSDMAKKTFNPIRAIVDNMKVKPNPNKTMISLSIGDPTVFGNLPTDPEVTQAMKDALDSGKYNGYAPSIGFLSSREEIASYYHCPEAPLEAKDVILTSGCSQAIDLCLAVLANPGQNILVPRPGFSLYKTLAESMGIEVKLYNLLPEKSWEIDLKQLEYLIDEKTACLIVNNPSNSCGSVFSKRHLQKILAVAARQCVPILADEIYGDMVFSDCKYEPLATLSTDVPILSCGGLAKRWLVPGWRLGWILIHDRRDIFGNEIRDGLVKLSQRILGPCTIVQGALKSILCRTPGEFYHNTLSFLKSNADLCYGALAAIPGLRPVRPSGAMYLMVGIEMEHFPEFENDVEFTERLVAEQSVHCLPATCFEYPNFIRVVITVPEVMMLEACSRIQEFCEQHYHCAEGSQEECDK [P220S] |
| disrupting interaction strength | MDPYMIQMSSKGNLPSILDVHVNVGGRSSVPGKMKGRKARWSVRPSDMAKKTFNPIRAIVDNMKVKPNPNKTMISLSIGDPTVFGNLPTDPEVTQAMKDALDSGKYNGYAPSIGFLSSREEIASYYHCPEAPLEAKDVILTSGCSQAIDLCLAVLANPGQNILVPRPGFSLYKTLAESMGIEVKLYNLLPEKSWEIDLKQLEYLIDEKTACLIVNNPSNPCGSVFSKRHLQKILAVAARQCVPILADEIYGDMVFSDCKYEPLATLSTDVPILSCGGLAKRWLVPGWRLGWILIHDRRDIFGNEIRDGLVKLSQRILGPCTIVQGALKSILCRTPGEFYHNTLSFLKSNADLCYGALAAIPGLRPVRPSGAMYLMVGIEMEHFPEFENDVEFTERLVAEQSVHCLPATCFEYPNFIRVVITVPEVMMLEACSWIQEFCEQHYHCAEGSQEECDK [R433W] |
| disrupting interaction strength | MDPYMIQMSSKGNLPSILDVHVNVGGRSSVPGKMKGRKARWSVRPSDMAKKTFNPIRAIVDNMKVKPNPNKTMISLSIGDPTVFGNLPTDPEVTQAMKDALDSGKYNGYAPSIGFLSSREEIASYYHCPEAPLEAKDVILTSGCSQAIDLCLAVLANPGQNILVPRPGFSLYKTLAESMGIEVKLYNLLPEKSWEIDLKQLEYLIDEKTACLIVNNPSNPCGSVFSKRHLQKILAVAARQCVPILADEIYGDMVFSDCKYEPLATLSTDVPIPSCGGLAKRWLVPGWRLGWILIHDRRDIFGNEIRDGLVKLSQRILGPCTIVQGALKSILCRTPGEFYHNTLSFLKSNADLCYGALAAIPGLRPVRPSGAMYLMVGIEMEHFPEFENDVEFTERLVAEQSVHCLPATCFEYPNFIRVVITVPEVMMLEACSRIQEFCEQHYHCAEGSQEECDK [L273P] |

Variants of: B2
Conditions: with zf64b_human ZFP64, Q9NTW7

| effect of a mutation on the interaction | Variant |
| --- | --- |
| with no effect | MSLADELLADLEEAAEEEEGGSYGEEEEEPAIEDVQEETQLDLSGDSVKTIAKLWDSKMFAEIMMKIEEYISKQAKASEVMGPVEAAPEYRVIVDANNLTVEIENEVNIIHKFIRDKYSKRFPELESLVPNALDYIRTVKELGNSLDKCKNNENLQQILTNATIMVVSVTASTTQGQQLSEEELERLEEACDMALELNASKHRIYEYVESRMSFIAPNLSIIIGASTAAKIMGVAGGLTNLSKMPACNIMLLGAQRKTLSGFSSTSVLPHTGYIYHSDIVQSLPPDLRRKAARLVAAKCTLAARVDSFHESTEGKVGYELKDEIERKFDKWQEPPPVKQVKPLPAPLDGQRKKRGGRRYRKMKERLGLTEIRKQANRMSFGEIEEDAYQEDLGFSLGHLGKSGSGRVRQTQVNEATKARISKTLQRTLQKQSVVYGGKSTIRDRSSGTASSVAFTPLQGLEIVNPQAAEKKVAEANQKYFSSMAEFLKVKGEKSGLMST [L107V] |

Variants of: B3
Conditions: with shlb2_human SH3GLB2, Q9NR46

| effect of a mutation on the interaction | Variant |
| --- | --- |
| with no effect | T508R |
| with no effect | R159W |
| disrupting interaction strength | R221H |
| with no effect | M448T |
| disrupting interaction strength | P77T |
| disrupting interaction strength | A394S |

Variants of: B4
Conditions: with itbp1_human ITGB1BP1, O14713

| effect of a mutation on the interaction | Variant |
| --- | --- |
| with no effect | D137G |
